Results from article PMC1934993 (Nucleic Acids Research, 2007).

Target: the molecule itself
Test: crystal structure

B1: C-terminally truncated Saccharomyces cerevisiae tyrosyl-tRNA synthetase (SceTyrRS, residues 1-364) (enzyme, UniProt P36421 1-364, looked up)
chain: MSSAATVDPNEAFGLITKNLQEVLNPQIIKDVLEVQKRHLKLYWGTAPTGRPHCGYFVPMTKLADFLKAGCEVTVLLADLHAFLDNMKAPLEVVNYRAKYYELTIKAILRSINVPIEKLKFVVGSSYQLTPDYTMDIFRLSNIVSQNDAKRAGADVVKQVANPLLSGLIYPLMQALDEQFLDVDCQFGGVDQRKIFVLAEENLPSLGYKKRAHLMNPMVPGLAQGGKMSASDPNSKIDLLEEPKQVKKKINSAFCSPGNVEENGLLSFVQYVIAPIQELKFGTNHFEFFIDRPEKFGGPITYKSFEEMKLAFKEEKLSPPDLKIGVADAINELLEPIRQEFANNKEFQEASEKGYPVATPQKSK
stoichiometry N: 2
